According to paper PMC12681835:

Assays:
Test in all cases: co-IP; HEK293 cells co-transfected with AnkB-220-HA (WT or mutant) and NrCAM plasmids in equimolar amounts; Brij98 lysate diluted in PBS, 0.1% TritonX-100; AnkB-HA precipitated with mouse anti-HA on Protein A/G magnetic beads overnight at 4 °C; blot for NrCAM, reprobed with anti-HA; NrCAM/AnkB ratio by densitometry
[1] = biological target: AnkB-220-HA H374W (human)
[2] = biological target: AnkB-220-HA A373V (maternally inherited ASD missense mutation) (human)
[3] = biological target: AnkB-220-HA H374A (human)
[4] = biological target: AnkB-220-HA R297E (human)
[5] = biological target: AnkB-220-HA R308E (human)

Substance: Neuron-glial related L1-CAM (NrCAM), mouse, WT (natural protein)
- percent decrease of co-immunoprecipitation compared to WT AnkB [1]: 80%
- fold increase of co-immunoprecipitation compared to WT AnkB [2]: 1.7 fold
- percent decrease of co-immunoprecipitation compared to WT AnkB [3]: 80%
- percent decrease of co-immunoprecipitation compared to WT AnkB [4]: 60%
- percent decrease of co-immunoprecipitation compared to WT AnkB [5]: 90%
